Data published in paper PMC5762878.

Columns and labels:
[1] = molecular target: Recombinant flavin reductase (rFlaR), HAT-tagged (Streptococcus pneumoniae (strain WU2)); test: SDS-PAGE with or without β-mercaptoethanol + MALDI-TOF of the bands; HAT-tagged rFlaR purified on Ni-NTA under denaturing conditions; reducing gel: major band 22 kDa, minor 45 kDa; non-reducing gel: 45 kDa major, 22 kDa minor; both bands identified by in-gel digestion and MALDI-TOF and detected by rabbit anti-rFlaR antiserum
[2] = molecular target: Flavin reductase (FlaR), endogenous in S. pneumoniae WU2 (Streptococcus pneumoniae (endogenous in strain WU2)); test: SDS-PAGE and immunoblot of cell fractions; cytoplasmic and cell-wall fractions of WU2 WT, immunoblotted with rabbit anti-rFlaR antiserum; bands at ~17 kDa and 34 kDa in the cytoplasm, 34 kDa band also in the cell-wall fraction

Substance | stoichiometry N [1] | stoichiometry N [2]
Recombinant flavin reductase (rFlaR), HAT-tagged (from UniProt A0ACD7PR00 1-174) (enzyme) | 2 | 
Flavin reductase (FlaR), endogenous in S. pneumoniae WU2 (from UniProt A0ACD7PR00 1-174) (enzyme) |  | 2
